From article PMC3103650 (Chemico-biological interactions, 2011)

Biological target: the molecule itself
Assay: SEC

B1: C-terminal domain of mtFDH (ALDH1L2), residues 413-923 (domain or fragment, human, UniProt Q3SY69 413-923, looked up)
chain: VRKLRGEDQEVELVVDYISKEVNEIMVKMPYQCFINGQFTDADDGKTYDTINPTDGSTICKVSYASLADVDKAVAAAKDAFENGEWGRMNARERGRLMYRLADLLEENQEELATIEALDSGAVYTLALKTHIGMSVQTFRYFAGWCDKIQGSTIPINQARPNRNLTFTKKEPLGVCAIIIPWNYPLMMLAWKSAACLAAGNTLVLKPAQVTPLTALKFAELSVKAGFPKGVINIIPGSGGIAGQRLSEHPDIRKLGFTGSTPIGKQIMKSCAVSNLKKVSLELGGKSPLIIFNDCELDKAVRMGMGAVFFNKGENCIAAGRLFVEESIHDEFVTRVVEEIKKMKIGDPLDRSTDHGPQNHKAHLEKLLQYCETGVKEGATLVYGGRQVQRPGFFMEPTVFTDVEDYMYLAKEESFGPIMVISKFQNGDIDGVLQRANSTEYGLASGVFTRDINKAMYVSEKLEAGTVFINTYNKTDVAAPFGGVKQSGFGKDLGEEALNEYLKTKTVTLEY
For B1, the “stoichiometry N” value was 4.
